# T1: PDZRN3_1, Q9UPQ7
# T1 sequence (Q9UPQ7 244-349, limits assumed, looked up): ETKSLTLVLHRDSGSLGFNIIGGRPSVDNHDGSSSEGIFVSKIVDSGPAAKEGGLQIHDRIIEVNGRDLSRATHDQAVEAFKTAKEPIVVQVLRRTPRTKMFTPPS
# T2: DLG3_1, Q92796
# T2 sequence (Q92796 125-227, limits assumed, looked up): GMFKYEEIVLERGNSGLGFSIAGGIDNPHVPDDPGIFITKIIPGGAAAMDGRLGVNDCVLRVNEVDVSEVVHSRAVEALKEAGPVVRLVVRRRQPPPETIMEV
# T3: NHERF3_1, Q5T2W1
# T3 sequence (Q5T2W1 4-100, limits assumed, looked up): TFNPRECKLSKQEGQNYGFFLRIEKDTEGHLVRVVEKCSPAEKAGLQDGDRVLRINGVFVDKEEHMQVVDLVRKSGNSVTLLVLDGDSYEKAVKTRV
# T4: APBA3_1, O96018
# T4 sequence (O96018 389-490, limits assumed, looked up): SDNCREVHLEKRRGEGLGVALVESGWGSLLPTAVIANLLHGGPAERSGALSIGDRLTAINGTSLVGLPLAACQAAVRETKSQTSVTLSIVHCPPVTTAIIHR
# T5: LIN7A, O14910
# T5 sequence (O14910 103-200, limits assumed, looked up): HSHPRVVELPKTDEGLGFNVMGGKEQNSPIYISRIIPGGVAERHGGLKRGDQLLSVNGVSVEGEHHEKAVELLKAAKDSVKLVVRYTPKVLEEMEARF
# T6: GRIP1_5, Q9Y3R0
# T6 sequence (Q9Y3R0 568-668, limits assumed, looked up): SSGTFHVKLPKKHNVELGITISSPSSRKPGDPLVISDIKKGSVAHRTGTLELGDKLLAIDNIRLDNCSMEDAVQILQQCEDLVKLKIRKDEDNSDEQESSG
# T7: MPDZ_12, O75970
# T7 sequence (O75970 1857-1958, limits assumed, looked up): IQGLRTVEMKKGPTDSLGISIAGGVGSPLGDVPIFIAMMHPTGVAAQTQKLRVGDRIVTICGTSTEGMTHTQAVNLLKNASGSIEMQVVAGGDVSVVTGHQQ
# T8: APBA2_1, Q99767
# T8 sequence (Q99767 563-664, limits assumed, looked up): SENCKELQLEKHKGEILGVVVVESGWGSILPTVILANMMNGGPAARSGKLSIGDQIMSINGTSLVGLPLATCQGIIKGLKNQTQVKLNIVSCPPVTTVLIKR
# T9: FRMPD1, Q5SYB0
# T9 sequence (Q5SYB0 52-145, limits assumed, looked up): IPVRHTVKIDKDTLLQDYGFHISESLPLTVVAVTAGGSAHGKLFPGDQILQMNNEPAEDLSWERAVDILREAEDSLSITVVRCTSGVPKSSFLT
# T10: MPDZ_5, O75970
# T10 sequence (O75970 695-796, limits assumed, looked up): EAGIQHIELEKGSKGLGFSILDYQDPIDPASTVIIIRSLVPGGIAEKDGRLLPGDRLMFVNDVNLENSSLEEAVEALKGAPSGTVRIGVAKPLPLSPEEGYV
# T11: GRIP1_7, Q9Y3R0
# T11 sequence (Q9Y3R0 999-1096, limits assumed, looked up): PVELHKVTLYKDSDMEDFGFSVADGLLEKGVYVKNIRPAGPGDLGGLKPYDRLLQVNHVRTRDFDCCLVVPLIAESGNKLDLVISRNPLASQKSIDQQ
# T12: PARD3B_1, Q8TEW8
# T12 sequence (Q8TEW8 196-299, limits assumed, looked up): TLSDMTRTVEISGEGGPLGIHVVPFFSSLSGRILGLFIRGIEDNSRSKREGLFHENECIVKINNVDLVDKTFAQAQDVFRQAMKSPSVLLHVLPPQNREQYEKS
# T13: CARD11, Q9BXL7
# T13 sequence (Q9BXL7 662-765, limits assumed, looked up): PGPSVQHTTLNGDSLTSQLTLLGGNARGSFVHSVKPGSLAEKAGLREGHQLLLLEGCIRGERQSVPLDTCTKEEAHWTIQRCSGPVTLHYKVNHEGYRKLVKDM
# How the values were obtained:
# Experiment in all cases: holdup assay
# Design in all cases: key: below the threshold = too weak to quantify, mostly under pKd 3.1 to 4
# [1] = target: T1, PDZRN3_1, Q9UPQ7
# [2] = target: T2, DLG3_1, Q92796
# [3] = target: T3, NHERF3_1, Q5T2W1
# [4] = target: LDB3, O75112
# LDB3, O75112, sequence (O75112 1-94): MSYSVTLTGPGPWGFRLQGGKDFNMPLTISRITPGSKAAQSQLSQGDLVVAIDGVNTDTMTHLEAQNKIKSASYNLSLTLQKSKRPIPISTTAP
# [5] = target: T4, APBA3_1, O96018
# [6] = target: T5, LIN7A, O14910
# [7] = target: FRMPD4, Q14CM0
# FRMPD4, Q14CM0, sequence (Q14CM0 67-160): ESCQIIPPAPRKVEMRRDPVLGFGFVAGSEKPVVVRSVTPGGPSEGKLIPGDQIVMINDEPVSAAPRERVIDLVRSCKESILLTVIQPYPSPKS
# [8] = target: T6, GRIP1_5, Q9Y3R0
# [9] = target: T7, MPDZ_12, O75970
# [10] = target: DLG4_1, P78352
# DLG4_1, P78352, sequence (P78352 62-152): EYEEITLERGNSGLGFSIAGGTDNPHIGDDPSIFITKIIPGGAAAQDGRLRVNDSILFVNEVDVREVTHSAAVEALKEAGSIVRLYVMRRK
# [11] = target: MAGI2_6, Q86UL8
# MAGI2_6, Q86UL8, sequence (Q86UL8 1141-1229): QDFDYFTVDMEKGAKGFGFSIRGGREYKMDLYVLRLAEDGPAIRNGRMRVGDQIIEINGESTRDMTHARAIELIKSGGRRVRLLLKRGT
# [12] = target: T8, APBA2_1, Q99767
# [13] = target: PARD3_3, Q8TEW0
# PARD3_3, Q8TEW0, sequence (Q8TEW0 582-685): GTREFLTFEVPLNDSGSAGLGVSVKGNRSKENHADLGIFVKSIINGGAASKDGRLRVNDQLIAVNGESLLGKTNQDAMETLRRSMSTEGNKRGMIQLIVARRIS
# [14] = target: GRID2IP_1, A4D2P6
# GRID2IP_1, A4D2P6, sequence (A4D2P6 1-87): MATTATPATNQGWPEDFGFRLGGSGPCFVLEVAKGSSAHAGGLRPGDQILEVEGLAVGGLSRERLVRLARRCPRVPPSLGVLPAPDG
# [15] = target: T9, FRMPD1, Q5SYB0
# [16] = target: NOS1, P29475
# NOS1, P29475, sequence (P29475 9-101): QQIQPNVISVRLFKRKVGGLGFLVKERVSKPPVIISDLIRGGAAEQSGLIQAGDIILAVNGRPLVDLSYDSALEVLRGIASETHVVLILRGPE
# [17] = target: PDLIM1, O00151
# PDLIM1, O00151, sequence (O00151 1-87): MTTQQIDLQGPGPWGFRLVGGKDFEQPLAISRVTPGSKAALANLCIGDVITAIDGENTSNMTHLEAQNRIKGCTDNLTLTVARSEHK
# [18] = target: IL16_4, Q14005
# IL16_4, Q14005, sequence (Q14005 1229-1329): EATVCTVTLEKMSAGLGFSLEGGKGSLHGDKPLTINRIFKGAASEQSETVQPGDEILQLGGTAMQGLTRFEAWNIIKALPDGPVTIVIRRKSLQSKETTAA
# [19] = target: MAGI2_3, Q86UL8
# MAGI2_3, Q86UL8, sequence (Q86UL8 600-682): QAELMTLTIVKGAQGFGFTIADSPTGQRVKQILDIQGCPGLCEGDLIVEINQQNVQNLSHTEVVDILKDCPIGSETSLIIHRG
# [20] = target: Inadl_3, Q8NI35
# Inadl_3, Q8NI35, sequence (Q8NI35 359-469): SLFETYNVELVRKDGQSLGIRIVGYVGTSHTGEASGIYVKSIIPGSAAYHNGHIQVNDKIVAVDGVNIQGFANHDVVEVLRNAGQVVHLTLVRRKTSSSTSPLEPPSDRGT
# [21] = target: T10, MPDZ_5, O75970
# [22] = target: T11, GRIP1_7, Q9Y3R0
# [23] = target: T12, PARD3B_1, Q8TEW8
# [24] = target: T13, CARD11, Q9BXL7
# [25] = plain residues with an end cap or a label only (N-terminal biotin on a linker: ahx)
# [26] = plain residues with an end cap or a label only (N-terminal biotin on a linker: ttds)
# [27] = plain residues with an end cap or a label only (N-terminal biotin on a linker: ado-ado)
binder,measurement,setting,value
"QGRWDHETIV [TMEM215, Q68D42]",pKd,[1]; [25],3.73
same,pKd,[2]; [25],4.34
same,pKd,[3]; [25],4.07
same,pKd,[4]; [25],3.47
same,pKd,[5]; [25],below the threshold
same,pKd,[6]; [25],below the threshold
same,pKd,[7]; [25],3.6
same,pKd,[8]; [25],3.55
same,pKd,[9]; [25],below the threshold
same,pKd,[10]; [25],4.68
same,pKd,[11]; [25],4.07
same,pKd,[12]; [25],below the threshold
same,pKd,[13]; [25],4.47
same,pKd,[14]; [25],below the threshold
same,pKd,[15]; [25],below the threshold
same,pKd,[16]; [25],4.04
same,pKd,[17]; [25],below the threshold
same,pKd,[18]; [25],below the threshold
same,pKd,[19]; [25],3.77
same,pKd,[20]; [25],4.42
same,pKd,[21]; [25],below the threshold
same,pKd,[22]; [25],3.51
same,pKd,[23]; [25],3.57
same,pKd,[24]; [25],below the threshold
"RTRQRNETQV [HPV51-E6, P26554]",pKd,[1]; [26],4.06
same,pKd,[2]; [26],4.28
same,pKd,[3]; [26],4.17
same,pKd,[4]; [26],below the threshold
same,pKd,[5]; [26],below the threshold
same,pKd,[6]; [26],below the threshold
same,pKd,[7]; [26],below the threshold
same,pKd,[8]; [26],below the threshold
same,pKd,[9]; [26],below the threshold
same,pKd,[10]; [26],4.9
same,pKd,[11]; [26],below the threshold
same,pKd,[12]; [26],below the threshold
same,pKd,[13]; [26],below the threshold
same,pKd,[14]; [26],below the threshold
same,pKd,[15]; [26],below the threshold
same,pKd,[16]; [26],3.91
same,pKd,[17]; [26],below the threshold
same,pKd,[18]; [26],below the threshold
same,pKd,[19]; [26],4.02
same,pKd,[20]; [26],below the threshold
same,pKd,[21]; [26],below the threshold
same,pKd,[22]; [26],below the threshold
same,pKd,[23]; [26],below the threshold
same,pKd,[24]; [26],below the threshold
"DPRNTQTSQI [ABRAXAS2, Q15018]",pKd,[1]; [26],3.54
same,pKd,[2]; [26],3.56
same,pKd,[3]; [26],3.91
same,pKd,[4]; [26],below the threshold
same,pKd,[5]; [26],below the threshold
same,pKd,[6]; [26],below the threshold
same,pKd,[7]; [26],below the threshold
same,pKd,[8]; [26],3.66
same,pKd,[9]; [26],below the threshold
same,pKd,[10]; [26],3.65
same,pKd,[11]; [26],below the threshold
same,pKd,[12]; [26],below the threshold
same,pKd,[13]; [26],3.64
same,pKd,[14]; [26],below the threshold
same,pKd,[15]; [26],below the threshold
same,pKd,[16]; [26],3.52
same,pKd,[17]; [26],below the threshold
same,pKd,[18]; [26],3.66
same,pKd,[19]; [26],below the threshold
same,pKd,[20]; [26],below the threshold
same,pKd,[21]; [26],below the threshold
same,pKd,[22]; [26],below the threshold
same,pKd,[23]; [26],3.69
same,pKd,[24]; [26],below the threshold
"TETASVCTKV [SLC23A1, Q9UHI7]",pKd,[1]; [27],3.53
same,pKd,[2]; [27],below the threshold
same,pKd,[3]; [27],4.54
same,pKd,[4]; [27],below the threshold
same,pKd,[5]; [27],below the threshold
same,pKd,[6]; [27],below the threshold
same,pKd,[7]; [27],below the threshold
same,pKd,[8]; [27],below the threshold
same,pKd,[9]; [27],3.82
same,pKd,[10]; [27],3.9
same,pKd,[11]; [27],3.69
same,pKd,[12]; [27],below the threshold
same,pKd,[13]; [27],below the threshold
same,pKd,[14]; [27],3.97
same,pKd,[15]; [27],below the threshold
same,pKd,[16]; [27],3.62
same,pKd,[17]; [27],below the threshold
same,pKd,[18]; [27],3.55
same,pKd,[19]; [27],4.16
same,pKd,[20]; [27],below the threshold
same,pKd,[21]; [27],below the threshold
same,pKd,[22]; [27],below the threshold
same,pKd,[23]; [27],3.61
same,pKd,[24]; [27],below the threshold
"LCALPKVTTV [AGMAT, Q9BSE5]",pKd,[1]; [26],below the threshold
same,pKd,[2]; [26],4.27
same,pKd,[3]; [26],below the threshold
same,pKd,[4]; [26],below the threshold
same,pKd,[5]; [26],below the threshold
same,pKd,[6]; [26],3.64
same,pKd,[7]; [26],below the threshold
same,pKd,[8]; [26],below the threshold
same,pKd,[9]; [26],below the threshold
same,pKd,[10]; [26],4.69
same,pKd,[11]; [26],4.64
same,pKd,[12]; [26],below the threshold
same,pKd,[13]; [26],3.62
same,pKd,[14]; [26],below the threshold
same,pKd,[15]; [26],below the threshold
same,pKd,[16]; [26],3.7
same,pKd,[17]; [26],below the threshold
same,pKd,[18]; [26],below the threshold
same,pKd,[19]; [26],4.4
same,pKd,[20]; [26],3.54
same,pKd,[21]; [26],below the threshold
same,pKd,[22]; [26],below the threshold
same,pKd,[23]; [26],below the threshold
same,pKd,[24]; [26],below the threshold
"FVHPILQSAV [PRKCA, P17252]",pKd,[1]; [27],4.21
same,pKd,[2]; [27],3.49
same,pKd,[3]; [27],4.82
same,pKd,[4]; [27],below the threshold
same,pKd,[5]; [27],below the threshold
same,pKd,[6]; [27],below the threshold
same,pKd,[7]; [27],below the threshold
same,pKd,[8]; [27],below the threshold
same,pKd,[9]; [27],below the threshold
same,pKd,[10]; [27],4.07
same,pKd,[11]; [27],3.66
same,pKd,[12]; [27],below the threshold
same,pKd,[13]; [27],below the threshold
same,pKd,[14]; [27],below the threshold
same,pKd,[15]; [27],below the threshold
same,pKd,[16]; [27],3.57
same,pKd,[17]; [27],below the threshold
same,pKd,[18]; [27],below the threshold
same,pKd,[19]; [27],3.83
same,pKd,[20]; [27],below the threshold
same,pKd,[21]; [27],below the threshold
same,pKd,[22]; [27],below the threshold
same,pKd,[23]; [27],below the threshold
same,pKd,[24]; [27],below the threshold

# Source: PMC9482650, “Quantitative fragmentomics allow affinity mapping of interactomes” (Nature Communications, 2022)
